From the supplement of paper PMC7877785
± gives the uncertainty stated by the source.

Assay: self-splicing fitness, log relative to wild type (ln ratio); higher = more splicing; Tetrahymena group I intron in knt gene, E. coli kanamycin selection, DiMSum; sequences stand for … in CUCUCU…GGAGGGAAAAGUUAUCAGGCAUGCACCUGGUAGCUAGUCUUUAAACCAAUAGAUUGCAUCGGUUUAAAAGGCAAGACCGUCAAAUUGCGGGAAAGGGGUCAACAGCCGUUCAGUACCAAGUCUCAGGGGAAACUUUGAGAUGGCCUUGCAAAGGGUAUGGUAAUAAGCUGACGGACAUGGUCCUAACCACGCAGCCAAGUCCUAAGUCAACAGAUCUUCUGUUGAUAUGGAUGCAGUUCACAGACUAAAUGUCGGUCGGGGAAGAUGUAUUCUUCUCAUAAGAUAUAGUCGGACCUCUCCUUAAUGGGAGCUAGCGGAUGAAGUGAUGCAACACUGGAGCCGCUGGGAACUAAUUUGUAUGCGAAAGUAUAUUGAUUAGUUUUGGAGUACUCGUGGUCG
Outline: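 Library with all eight P1ex-region intron nucleotides randomised, intron inside the knt kanamycin-resistance gene on pET-22b(+), in E. coli BL21(DE3). Cells grew overnight at 37°C or 30°C on LB agar with or without 25 μg/mL kanamycin (plus 100 μg/mL carbenicillin, 50 μM IPTG, 0.2% rhamnose), in six replicate transformations. Pooled colonies were amplicon-sequenced on Illumina HiSeq 2500. DiMSum fitness is the error-weighted combination of wild-type-normalised replicate fold changes, kanamycin versus none.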

Sequence	self-splicing fitness (ln) (30 °C)	self-splicing fitness (ln) (37 °C)
GUAGAGCAAUAUUACGAGGA	-2.61 ± 0.26	
GUAGAGCAAUAUUACGAGGG	-3.25 ± 0.27	-2.38 ± 0.37
GUAGAGCAAUAUUACGAUUA	-0.625 ± 0.1	-0.396 ± 0.14
GUAGAGCAAUAUUACGCACC	-2.47 ± 0.28	-0.709 ± 0.2
GUAGAGCAAUAUUACGCACG	-0.718 ± 0.24	-1.99 ± 0.27
GUAGAGCAAUAUUACGCUCA	-0.751 ± 0.1	-0.0338 ± 0.16
GUAGAGCAAUAUUACGCUCC	-1.72 ± 0.36	
GUAGAGCAAUAUUACGCUUA	-0.468 ± 0.087	-0.371 ± 0.1
GUAGAGCAAUAUUACGCUUG	-0.837 ± 0.12	-0.536 ± 0.19
GUAGAGCAAUAUUACGGAGU	-2.27 ± 0.23	-1.61 ± 0.18
GUAGAGCAAUAUUACGGCGU	-0.532 ± 0.077	0.0227 ± 0.088
GUAGAGCAAUAUUACGUACA	-0.971 ± 0.11	-1.12 ± 0.17
GUAGAGCAAUAUUACGUCAC	-1.65 ± 0.1	-1.06 ± 0.12
GUAGAGCAAUAUUACGUCCC	-1.01 ± 0.37	0.144 ± 0.41
GUAGAGCAAUAUUACGUCCU	-1.1 ± 0.2	-0.4 ± 0.22
GUAGAGCAAUAUUACGUUAG	-2.43 ± 0.12	-0.99 ± 0.19
GUAGAGCAAUAUUACGUUAU	-1.68 ± 0.086	-0.698 ± 0.091
GUAUAGCAAUAUUACGACAG	-2.58 ± 0.19	-1.9 ± 0.25
GUAUAGCAAUAUUACGAUUC	0.127 ± 0.1	0.598 ± 0.13
GUAUAGCAAUAUUACGCAGC	-2.32 ± 0.37	-1.25 ± 0.33
GUAUAGCAAUAUUACGCCCA	-1.33 ± 0.15	-0.76 ± 0.17
GUAUAGCAAUAUUACGCGGG	-3.7 ± 0.27	-2.23 ± 0.26
GUAUAGCAAUAUUACGCGGU		-2.53 ± 0.44
GUAUAGCAAUAUUACGCUGA	-1.91 ± 0.2	-1.81 ± 0.17
GUAUAGCAAUAUUACGCUGC	-2.6 ± 0.48	-0.913 ± 0.3

Sequence	self-splicing fitness (ln) (30 °C)	self-splicing fitness (ln) (37 °C)
GUAUAGCAAUAUUACGGAAA	-2.1 ± 0.43	-2.81 ± 0.32
GUAUAGCAAUAUUACGGACG	-2.73 ± 0.41	-1.3 ± 0.33
GUAUAGCAAUAUUACGGAGG	-2.94 ± 0.23	-3.14 ± 0.4
GUAUAGCAAUAUUACGGCAG	-4.25 ± 0.42	-1.5 ± 0.25
GUAUAGCAAUAUUACGGCCA	-0.388 ± 0.23	0.0249 ± 0.18
GUAUAGCAAUAUUACGGGUG	-3.76 ± 0.16	-2.86 ± 0.22
GUAUAGCAAUAUUACGUAGC	-3.22 ± 0.19	-1.46 ± 0.14
GUAUAGCAAUAUUACGUCGA	-2.2 ± 0.29	-1.03 ± 0.2
GUAUAGCAAUAUUACGUCGG	-3.48 ± 0.26	-1.31 ± 0.22
GUAUAGCAAUAUUACGUCUG	-3.17 ± 0.17	-1.08 ± 0.14
GUAUAGCAAUAUUACGUUAC	-3.43 ± 0.41	
GUAUAGCAAUAUUACGUUCU	-2.27 ± 0.13	-0.863 ± 0.13
GUCAAGCAAUAUUACGAAUC	-2.16 ± 0.11	-0.596 ± 0.12
GUCAAGCAAUAUUACGAAUG	-4.11 ± 0.22	-1.18 ± 0.1
GUCAAGCAAUAUUACGACAA	-3.81 ± 0.4	-2.58 ± 0.27
GUCAAGCAAUAUUACGACAC	-0.691 ± 0.12	-0.114 ± 0.14
GUCAAGCAAUAUUACGACGA	-3.52 ± 0.29	-1.88 ± 0.18
GUCAAGCAAUAUUACGACUC	-1.73 ± 0.15	-0.881 ± 0.15
GUCAAGCAAUAUUACGACUU	-3.18 ± 0.099	-1.86 ± 0.1
GUCAAGCAAUAUUACGAGGG	-4.08 ± 0.42	-3.38 ± 0.3
GUCAAGCAAUAUUACGAUCC	-1.48 ± 0.18	-0.693 ± 0.21
GUCAAGCAAUAUUACGAUUA	-1.04 ± 0.1	-0.259 ± 0.068
GUCAAGCAAUAUUACGCACC		-0.99 ± 0.47
GUCAAGCAAUAUUACGCAGC		-3.49 ± 0.35
GUCAAGCAAUAUUACGCCAG	-4.54 ± 0.28	-3.95 ± 0.33

Sequence	self-splicing fitness (ln) (30 °C)	self-splicing fitness (ln) (37 °C)
GUCAAGCAAUAUUACGCCUA	-0.294 ± 0.12	0.0798 ± 0.093
GUCAAGCAAUAUUACGCUGG	-4.08 ± 0.28	-3.72 ± 0.29
GUCAAGCAAUAUUACGCUUG	-4.27 ± 0.36	-2.06 ± 0.23
GUCAAGCAAUAUUACGGAAA	-2.28 ± 0.14	-1.72 ± 0.12
GUCAAGCAAUAUUACGGCAG		-2.86 ± 0.29
GUCAAGCAAUAUUACGGGAG	-3.23 ± 0.1	-1.07 ± 0.081
GUCAAGCAAUAUUACGGUCG	-3.23 ± 0.14	-1.26 ± 0.13
GUCAAGCAAUAUUACGUACA	-3.13 ± 0.14	-1.73 ± 0.098
GUCAAGCAAUAUUACGUCGA	-3.6 ± 0.42	-4.19 ± 0.46
GUCAAGCAAUAUUACGUCUA	-1.94 ± 0.1	-0.679 ± 0.079
GUCAAGCAAUAUUACGUGCA	-1.58 ± 0.11	-0.243 ± 0.1
GUCAAGCAAUAUUACGUUAC	-3.02 ± 0.17	-2.96 ± 0.17
GUCAAGCAAUAUUACGUUGG	-4.53 ± 0.31	-3.51 ± 0.3
GUCAAGCAAUAUUACGUUGU	-3.69 ± 0.13	-2.76 ± 0.13
GUCAAGCAAUAUUACGUUUU	-2.8 ± 0.11	-0.976 ± 0.1
GUCCAGCAAUAUUACGAAAG	-3.37 ± 0.21	-0.318 ± 0.17
GUCCAGCAAUAUUACGAAAU	-0.587 ± 0.1	-0.0182 ± 0.12
GUCCAGCAAUAUUACGAAGU	-0.504 ± 0.074	0.0552 ± 0.11
GUCCAGCAAUAUUACGACUC	-0.116 ± 0.087	-0.335 ± 0.1
GUCCAGCAAUAUUACGAGAU	-2.92 ± 0.13	-1.32 ± 0.11
GUCCAGCAAUAUUACGAUGG	-3.74 ± 0.16	-3.37 ± 0.25
GUCCAGCAAUAUUACGCCGA	-1.78 ± 0.22	-2.03 ± 0.14
GUCCAGCAAUAUUACGCGAA	-1.21 ± 0.11	0.483 ± 0.11
GUCCAGCAAUAUUACGCGGC	-2.27 ± 0.26	-2.6 ± 0.48
GUCCAGCAAUAUUACGCUAG	-1.18 ± 0.076	-0.908 ± 0.1

Sequence	self-splicing fitness (ln) (30 °C)	self-splicing fitness (ln) (37 °C)
GUCCAGCAAUAUUACGCUUG	-1.57 ± 0.079	-1.31 ± 0.09
GUCCAGCAAUAUUACGGCUU	-0.269 ± 0.068	0.16 ± 0.087
GUCCAGCAAUAUUACGGGCA	-2.25 ± 0.21	-1.85 ± 0.18
GUCCAGCAAUAUUACGGGCU	-2.54 ± 0.31	
GUCCAGCAAUAUUACGGGGG	-2.01 ± 0.1	-1.55 ± 0.14
GUCCAGCAAUAUUACGGUCC	-3.66 ± 0.35	-2.68 ± 0.29
GUCCAGCAAUAUUACGGUUG	-1 ± 0.067	-0.214 ± 0.091
GUCCAGCAAUAUUACGUACG	-1.58 ± 0.07	-1.14 ± 0.1
GUCCAGCAAUAUUACGUCUA	-0.899 ± 0.11	-0.668 ± 0.12
GUCCAGCAAUAUUACGUUCG	-1.26 ± 0.055	-0.749 ± 0.079
GUCGAGCAAUAUUACGAAAA		-2.58 ± 0.41
GUCGAGCAAUAUUACGAAGG	-3.61 ± 0.47	
GUCGAGCAAUAUUACGAAUG	-4.06 ± 0.35	-0.777 ± 0.2
GUCGAGCAAUAUUACGAAUU	-3.05 ± 0.32	-0.878 ± 0.19
GUCGAGCAAUAUUACGACAA	-1.97 ± 0.24	-2.85 ± 0.4
GUCGAGCAAUAUUACGAGAU		-2.45 ± 0.39
GUCGAGCAAUAUUACGAGGA		-2.44 ± 0.49
GUCGAGCAAUAUUACGAUAC	-0.265 ± 0.28	-0.381 ± 0.24
GUCGAGCAAUAUUACGCAAG	-3.6 ± 0.27	-2.71 ± 0.3
GUCGAGCAAUAUUACGCACA	-1.76 ± 0.21	-0.707 ± 0.18
GUCGAGCAAUAUUACGCGCA	-0.713 ± 0.26	-1.17 ± 0.21
GUCGAGCAAUAUUACGCGUA	-1.26 ± 0.14	-0.913 ± 0.11
GUCGAGCAAUAUUACGGAUG	-1.27 ± 0.095	-0.69 ± 0.13
GUCGAGCAAUAUUACGGUAU	-1.34 ± 0.084	-0.615 ± 0.12
